Experimental data: patent publication US11203633B2, “Polynucleotides encoding antibodies or antigen binding fragments thereof that bind pseudomonas perv” (priority 2011, dated 2021)

Columns and labels:
[1] = test system: P. aeruginosa (6077 exoU+; 6206) lysis of rabbit red blood cells; experiment: Rabbit red blood cell (RBC) lysis inhibition assay; assay type: cell-based, Pseudomonas aeruginosa; conditions: strain 6077; FIG. 12D-E
Procedure: Percent inhibition of cytotoxicity analysis was analysed for the parental V2L2 mAb, mAb166 (positive control) and R347 (negative control), where the antibodies were administered to cultured broncho-epithelial cell line A549 combined with log-phase P. aeruginosa strain 6077 (exoU+) at a MOI of approximately 10. A549 lysis was assayed by measuring released lactate dehydrogenase (LDH) activity and lysis in the presence of mAbs was compared to wells without mAb to determine percent inhibition. The V2L2 mAb, mAb166 (positive control) and R347 (negative control) were evaluated for their ability to prevent lysis of RBCs, where the antibodies were mixed with log-phase P. aeruginosa 6077 (exoU^+) and washed rabbit red blood cells (RBCs) and incubated for 2 hours at 37°. Intact RBCs were pelleted and the extent of lysis determined by measuring the OD405 of the cell-free supernatant. Lysis in the presence of anti-PcrV mAbs was compared to wells without mAb to determine percent inhibition. The positive control antibody, mAb166, is a previously characterized anti-PcrV antibody (J Infect Dis. 186: 64-73 (2002), Crit Care Med. 40: 2320-2326 (2012)).

rPcrV protein = experiment: Binding kinetics, Bio-Rad ProteOn XPR36; parameters: species or system Pseudomonas aeruginosa; conditions: antibody captured, rPcrV injected; FIG. 12G-H
Procedure: Binding kinetics of V2L2-GL and V2L2-MD were measured using a Bio-Rad ProteOn™ XPR36 instrument. Antibodies were captured on a GLC bisensor chip using anti-human IgG reagents. rPcrV protein was injected at multiple concentrations and the dissociation phase followed for 600 seconds. Data was captured and analyzed using ProteOn Manager software. […] The clone V2L2-MD had increased Kd by 2-3 folds over V2L2-GL.

B1: V2L2-MD: optimized V2L2-GL mAb; germlined lead optimized anti-PcrV antibody (antibody, V domains shown)
VH: EMQLLESGGGLVQPGGSLRLSCAASGFTFSSYAMNWVRQAPGEGLEWVSAITISGITAYYTDSVKGRFTISRDNSKNTLYLQMNSLRAGDTAVYYCAKEEFLPGTHYYYGMDVWGQGTTVTVSS
VL: AIQMTQSPSSLSASVGDRVTITCRASQGIRNDLGWYQQKPGKAPKLVIYSASTLQSGVPSRFSGSGSGTDFTLSISSLQPDDFATYYCLQDYNYPWTFGQGTKVEIK
modifications: V2L2-MD VH; V2L2-MD and V2L2-GL VL
prevention of RBC lysis [1]: demonstrated prevention of RBC lysis
change of Kd over V2L2-GL (rPcrV protein): 2-3 folds
